Data taken from doi:10.1101/2020.02.01.930172 (bioRxiv, 2020).

Target: GST-SIRT6 K33R (human, UniProt Q8N6T7 1-355, K33R)
Assay: pull-down

GST-SIRT6 K33R, sequence (Q8N6T7 whole entry K33R): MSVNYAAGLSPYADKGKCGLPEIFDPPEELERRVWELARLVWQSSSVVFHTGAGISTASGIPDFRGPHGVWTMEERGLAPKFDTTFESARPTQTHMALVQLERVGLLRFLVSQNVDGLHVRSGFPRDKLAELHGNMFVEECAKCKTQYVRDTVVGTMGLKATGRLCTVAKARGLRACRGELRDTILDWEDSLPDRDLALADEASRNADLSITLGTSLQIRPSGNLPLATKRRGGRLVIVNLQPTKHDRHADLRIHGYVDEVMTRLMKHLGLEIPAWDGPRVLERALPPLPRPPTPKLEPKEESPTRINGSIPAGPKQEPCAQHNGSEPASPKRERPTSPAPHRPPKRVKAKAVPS

GKKATQASQEY [biotin-labeled C-terminal γH2AX peptide]: binds.
